Laboratory results: patent publication US20240360223A1 (DRAGONFLY THERAPEUTICS, published 2024)
Where “and” joins values, the source holds several entries; their conditions need not be identical. Identical values can stand only once.

Columns and labels:
human CD64 = molecular target: T1, human CD64 (human, UniProt P12314 16-288, limits assumed); test: SPR, average
T1 construct: also called FcγRI
Method: Binding analyses as described in this Example were performed using SPR, as described in Example 4.

human CD16a V158 = molecular target: T2, human CD16a V158 (human, UniProt P08637 17-208); test: SPR, average
T2 construct: also called hCD16aV; hCD16a V158
T2 sequence (P08637 17-208 F176V limits assumed): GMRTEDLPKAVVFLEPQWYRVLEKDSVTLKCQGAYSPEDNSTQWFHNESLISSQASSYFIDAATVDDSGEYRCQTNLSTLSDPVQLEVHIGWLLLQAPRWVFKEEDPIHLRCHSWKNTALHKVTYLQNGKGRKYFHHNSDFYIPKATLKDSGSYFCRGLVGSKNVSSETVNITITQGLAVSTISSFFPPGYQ

human FcRn = human FcRn (human, UniProt P55899 24-297; P61769 21-119); test: SPR, pH 6.0, steady state; pH 6.0; third replicate
[1] = molecular target: T3, human BAFF-R expressed on cells (human, UniProt Q96RJ3 1-184); test: flow cytometry, human BAFF-R CHO cells
T3 construct: Cell surface BAFF-R, endogenous on B cell lines and primary B cells or overexpressed on isogenic CHO cells; also called hBAFF-R; hBAFF-R-CHO

[2] = molecular target: T4, cynomolgus NKG2D (recombinant mFc-tagged dimer) (cynomolgus, UniProt P61252 78-216); test: SPR, kinetics fit, average
T4 construct: also called cyno NKG2D
T4 sequence (looked up): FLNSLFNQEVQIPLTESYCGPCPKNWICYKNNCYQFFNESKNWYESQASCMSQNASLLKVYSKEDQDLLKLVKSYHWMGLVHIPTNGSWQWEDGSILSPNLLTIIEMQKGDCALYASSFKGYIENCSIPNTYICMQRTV
Source text: (§1) Two different fits were utilized to obtain the equilibrium affinity data: steady state affinity fit and kinetic fit.

[3] = molecular target: T4, cynomolgus NKG2D (recombinant …); test: SPR, kinetics fit
Source text: as §1

human CD32a H131 = molecular target: T5, human CD32a H131 (human, UniProt P12318 36-218, limits assumed); test: SPR, steady state
T5 sequence (looked up): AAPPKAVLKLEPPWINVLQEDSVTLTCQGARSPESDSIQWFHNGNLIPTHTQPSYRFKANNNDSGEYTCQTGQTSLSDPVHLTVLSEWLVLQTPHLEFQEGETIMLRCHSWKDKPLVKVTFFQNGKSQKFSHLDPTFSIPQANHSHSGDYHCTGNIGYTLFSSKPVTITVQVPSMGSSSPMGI

[4] = molecular target: T6, human NKG2D (recombinant mFc-tagged dimer) (human, UniProt P26718 78-216); test: SPR, steady state fit
T6 construct: also called hNKG2D
T6 sequence (looked up): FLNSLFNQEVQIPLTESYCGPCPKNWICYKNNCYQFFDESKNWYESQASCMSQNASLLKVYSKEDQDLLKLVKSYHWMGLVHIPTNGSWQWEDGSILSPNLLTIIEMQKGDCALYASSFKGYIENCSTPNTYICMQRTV
Source text: NKG2D is a native dimer, therefore recombinant mFc-tagged NKG2D dimer was used for this experiment. Two different fits were utilized to obtain the equilibrium affinity data: steady state affinity fit and kinetic fit.

T1 sequence (P12314 16-288 limits assumed): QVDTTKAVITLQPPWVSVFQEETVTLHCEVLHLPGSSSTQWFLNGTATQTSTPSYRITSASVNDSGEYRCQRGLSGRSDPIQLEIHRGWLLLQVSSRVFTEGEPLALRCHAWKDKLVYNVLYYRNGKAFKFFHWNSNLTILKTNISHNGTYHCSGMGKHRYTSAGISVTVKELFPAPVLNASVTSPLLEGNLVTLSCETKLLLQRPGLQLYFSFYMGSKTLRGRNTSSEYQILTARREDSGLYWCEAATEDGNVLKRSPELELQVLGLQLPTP

Kd (human CD64): 0.0032 µM
koff (human CD64): 0.00023 s⁻¹
kon (human CD64): 73000 M⁻¹ s⁻¹
koff (human CD16a V158): 0.014 s⁻¹
kon (human CD16a V158): 110000 M⁻¹ s⁻¹
Kd (human FcRn): 1.1 µM
EC50 [1]: 0.00309 µM
Kd [2]: 0.597 µM
Kd [3]: 0.609 µM and 0.617 µM and 0.572 µM and 0.587 µM
Kd (human CD32a H131): 0.9 µM and 1.1 µM and 1 µM
Kd [4]: 0.438 µM and 0.453 µM and 0.468 µM and 0.466 µM
B1: AB1424/AB1612 F3′ TriNKET (bispecific antibody, human IgG1, kappa)
chain: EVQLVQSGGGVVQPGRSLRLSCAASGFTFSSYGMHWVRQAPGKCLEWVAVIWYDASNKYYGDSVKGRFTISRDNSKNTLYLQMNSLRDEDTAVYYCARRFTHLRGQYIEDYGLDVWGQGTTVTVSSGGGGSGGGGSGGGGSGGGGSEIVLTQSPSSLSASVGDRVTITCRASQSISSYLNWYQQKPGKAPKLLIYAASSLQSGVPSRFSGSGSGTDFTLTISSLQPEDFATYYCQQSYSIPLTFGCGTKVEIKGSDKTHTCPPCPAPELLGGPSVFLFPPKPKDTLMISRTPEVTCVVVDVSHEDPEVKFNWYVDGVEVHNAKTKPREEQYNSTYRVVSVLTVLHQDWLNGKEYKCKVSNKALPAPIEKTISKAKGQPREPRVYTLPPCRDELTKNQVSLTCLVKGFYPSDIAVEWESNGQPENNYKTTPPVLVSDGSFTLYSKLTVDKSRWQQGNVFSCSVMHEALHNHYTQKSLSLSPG
heavy: EVQLVESGGGLVKPGGSLRLSCAASGFTFSSYSMNWVRQAPGKGLEWVSSISSSSSYIYYADSVKGRFTISRDNAKNSLYLQMNSLRAEDTAVYYCARGAPIGAAAGWFDPWGQGTLVTVSSASTKGPSVFPLAPSSKSTSGGTAALGCLVKDYFPEPVTVSWNSGALTSGVHTFPAVLQSSGLYSLSSVVTVPSSSLGTQTYICNVNHKPSNTKVDKKVEPKSCDKTHTCPPCPAPELLGGPSVFLFPPKPKDTLMISRTPEVTCVVVDVSHEDPEVKFNWYVDGVEVHNAKTKPREEQYNSTYRVVSVLTVLHQDWLNGKEYKCKVSNKALPAPIEKTISKAKGQPREPQVCTLPPSRDELTENQVSLTCLVKGFYPSDIAVEWESNGQPENNYKTTPPVLDSDGSFFLYSWLTVDKSRWQQGNVFSCSVMHEALHNHYTQKSLSLSPG
light: DIQMTQSPSSVSASVGDRVTITCRASQGISSWLAWYQQKPGKAPKLLIYAASSLQSGVPSRFSGSGSGTDFTLTISSLQPEDFATYYCQQGVSFPRTFGGGTKVEIKRTVAAPSVFIFPPSDEQLKSGTASVVCLLNNFYPREAKVQWKVDNALQSGNSQESVTEQDSKDSTYSLSSTLTLSKADYEKHKVYACEVTHQGLSSPVTKSFNRGEC
notes: Chain S: anti-BAFF-R scFv-CH2-CH3; chain H: anti-NKG2D VH-CH1-CH2-CH3; chain L: anti-NKG2D VL-CL; also called AB1612-002
